# Measured values published in publication PMC9500918, “Extended N-Terminal Acetyltransferase Naa50 in Filamentous Fungi Adds to Naa50 Diversity” (International Journal of Molecular Sciences, 2022).
# B1: CtNaa50_1-289/CtDLC1 complex (Thermochaetoides thermophila DSM 1495) (protein)
# chain: MSASRQASIKSFFQPRGLPTHNTTFSSKTPPTDRATQTTTPPPVPPPAPAPPSHQPAAPEPITISVRLPPGGVPNLPSPPSLPSGASIVPLAQEHIPALRRINSLLLPVAYPDSFYHKALDPLASGLFSRAILWQDTNADPPKVVGGLICRLEPNPFLSVTGEPTPVQLPADQPQRAPQAPKDTPFHAIYIQSLALLSPYRSLGLAAAALDHIIATAAVLPAAGSNIDARTIYAHVWTENEEGLKWYESRGFVKEGGEPVKGYYFKLRPDTAWIVRRHIGESAKLNDVV
# notes: CtNaa50 1-289 (S. cerevisiae, His-tag cut by TEV) co-purified with untagged CtDLC1 (E. coli); with putative dynein light chain 1 protein
# B2: CtNaa50_82-289 (GNAT) (Thermochaetoides thermophila DSM 1495) (protein)
# chain: LPSGASIVPLAQEHIPALRRINSLLLPVAYPDSFYHKALDPLASGLFSRAILWQDTNADPPKVVGGLICRLEPNPFLSVTGEPTPVQLPADQPQRAPQAPKDTPFHAIYIQSLALLSPYRSLGLAAAALDHIIATAAVLPAAGSNIDARTIYAHVWTENEEGLKWYESRGFVKEGGEPVKGYYFKLRPDTAWIVRRHIGESAKLNDVV
# notes: GNAT domain, residues 82-289, C-terminal His6 kept, E. coli; full-length 445 residues; one molecule per asymmetric unit
# B3: CtNaa50_82-445 (ΔN) (Thermochaetoides thermophila DSM 1495) (protein)
# chain: LPSGASIVPLAQEHIPALRRINSLLLPVAYPDSFYHKALDPLASGLFSRAILWQDTNADPPKVVGGLICRLEPNPFLSVTGEPTPVQLPADQPQRAPQAPKDTPFHAIYIQSLALLSPYRSLGLAAAALDHIIATAAVLPAAGSNIDARTIYAHVWTENEEGLKWYESRGFVKEGGEPVKGYYFKLRPDTAWIVRRHIGESAKLNDVVSQPQPQPQQQLQQQPAVDIAPTATSVLAAAVNLPPITSTPPPPSTGSKLPTSNTSTLASRPPPPLRSTSSSTSSATSLSYQNTRPPTEWNDIPPDMVAGPPIAARGRRVTAAAASDPAANGCSGTGSGASSRSASAAAGTGKKRKGRDYPTAAFGN
# notes: N-terminal deletion, residues 82-445, E. coli
# B4: CtNaa50_1-289 (ΔC) (Thermochaetoides thermophila DSM 1495) (protein)
# chain: MSASRQASIKSFFQPRGLPTHNTTFSSKTPPTDRATQTTTPPPVPPPAPAPPSHQPAAPEPITISVRLPPGGVPNLPSPPSLPSGASIVPLAQEHIPALRRINSLLLPVAYPDSFYHKALDPLASGLFSRAILWQDTNADPPKVVGGLICRLEPNPFLSVTGEPTPVQLPADQPQRAPQAPKDTPFHAIYIQSLALLSPYRSLGLAAAALDHIIATAAVLPAAGSNIDARTIYAHVWTENEEGLKWYESRGFVKEGGEPVKGYYFKLRPDTAWIVRRHIGESAKLNDVV
# notes: C-terminal deletion, residues 1-289, N-terminal His-tag removed by TEV, S. cerevisiae
# B5: CtNaa50_82-289 (GNAT) (Thermochaetoides thermophila DSM 1495; Y190F) (protein)
# chain: LPSGASIVPLAQEHIPALRRINSLLLPVAYPDSFYHKALDPLASGLFSRAILWQDTNADPPKVVGGLICRLEPNPFLSVTGEPTPVQLPADQPQRAPQAPKDTPFHAIFIQSLALLSPYRSLGLAAAALDHIIATAAVLPAAGSNIDARTIYAHVWTENEEGLKWYESRGFVKEGGEPVKGYYFKLRPDTAWIVRRHIGESAKLNDVV
# notes: as for B2
# B6: CtNaa50_82-289 (GNAT) (Thermochaetoides thermophila DSM 1495; H235A) (protein)
# chain: LPSGASIVPLAQEHIPALRRINSLLLPVAYPDSFYHKALDPLASGLFSRAILWQDTNADPPKVVGGLICRLEPNPFLSVTGEPTPVQLPADQPQRAPQAPKDTPFHAIYIQSLALLSPYRSLGLAAAALDHIIATAAVLPAAGSNIDARTIYAAVWTENEEGLKWYESRGFVKEGGEPVKGYYFKLRPDTAWIVRRHIGESAKLNDVV
# notes: as for B2
# B7: NcNaa50_93-287 (GNAT) (Neurospora crassa OR74A) (protein)
# chain: SQANIVAVAEHHIAALRRINSLLLQVAYPDAFYAKVLEPLASGLFSRVILWSDDPTSEPKVIGGVVCRLEPNPFLDPNGQPQAPRIQQNQPGPSAPIDYPYHAIYIQSLALLSPYRSLGLAAAALEHIIASASILPAAGSTINVRTIYAHVWTENEEGLQWYGQRGFRTEGRDPVRGYYFKLRPDTAWIVRRDIG
# notes: GNAT domain, residues 93-287, C-terminal His6, E. coli; full-length 494 residues
# Columns and labels:
# Experiment in all cases: colorimetric DTNB acetylation assay, Michaelis-Menten
# Settings in all cases: 1.5 mM MVNALE peptide, 30 °C, reaction buffer pH 7.5
# [1] = substrate: CC(=O)SCCNC(=O)CCNC(=O)[C@H](O)C(C)(C)COP(=O)(O)OP(=O)(O)OC[C@H]1O[C@@H](n2cnc3c(N)ncnc32)[C@H](O)[C@@H]1OP(=O)(O)O; format: biochemical, Thermochaetoides thermophila
# [2] = substrate: CC(=O)SCCNC(=O)CCNC(=O)[C@H](O)C(C)(C)COP(=O)(O)OP(=O)(O)OC[C@H]1O[C@@H](n2cnc3c(N)ncnc32)[C@H](O)[C@@H]1OP(=O)(O)O; format: biochemical, Thermochaetoides thermophila; remark: listed apart in the source
# Source text: colorimetric DTNB acetylation assay, Michaelis-Menten on CtNaa50_82-289 (GNAT)
# [3] = substrate: CC(=O)SCCNC(=O)CCNC(=O)[C@H](O)C(C)(C)COP(=O)(O)OP(=O)(O)OC[C@H]1O[C@@H](n2cnc3c(N)ncnc32)[C@H](O)[C@@H]1OP(=O)(O)O; format: biochemical, Thermochaetoides thermophila; remark: listed apart in the source
# Source text: colorimetric DTNB acetylation assay, Michaelis-Menten on CtNaa50_82-445 (ΔN)
# [4] = substrate: CC(=O)SCCNC(=O)CCNC(=O)[C@H](O)C(C)(C)COP(=O)(O)OP(=O)(O)OC[C@H]1O[C@@H](n2cnc3c(N)ncnc32)[C@H](O)[C@@H]1OP(=O)(O)O; format: biochemical, Thermochaetoides thermophila; remark: listed apart in the source
# Source text: colorimetric DTNB acetylation assay, Michaelis-Menten on CtNaa50_1-289 (ΔC)
# [5] = substrate: CC(=O)SCCNC(=O)CCNC(=O)[C@H](O)C(C)(C)COP(=O)(O)OP(=O)(O)OC[C@H]1O[C@@H](n2cnc3c(N)ncnc32)[C@H](O)[C@@H]1OP(=O)(O)O; format: biochemical, Neurospora crassa
# Source text: colorimetric DTNB acetylation assay, Michaelis-Menten on NcNaa50_93-287 (GNAT)
protein,measurement,setting,value
B1,Km,[1],30.4 ± 6.3 µM
same,kcat,[1],0.357 ± 0.02 s⁻¹
B2,Km,[2],52.7 ± 8.6 µM
same,kcat,[2],0.607 ± 0.03 s⁻¹
same,kcat/Km,[2],11500 ± 2000 M⁻¹ s⁻¹
B3,Km,[3],41.2 ± 6.1 µM
same,kcat,[3],0.398 ± 0.0167 s⁻¹
same,kcat/Km,[3],9670 ± 1500 M⁻¹ s⁻¹
B4,Km,[4],31.9 ± 4.4 µM
same,kcat,[4],0.272 ± 0.01 s⁻¹
same,kcat/Km,[4],8500 ± 1170 M⁻¹ s⁻¹
B5,Km,[2],22.0 ± 4.0 µM
same,kcat,[2],0.0933 ± 0.005 s⁻¹
same,kcat/Km,[2],4330 ± 833 M⁻¹ s⁻¹
B6,Km,[2],15.3 ± 3.1 µM
same,kcat,[2],0.0233 ± 0.00167 s⁻¹
same,kcat/Km,[2],1500 ± 333 M⁻¹ s⁻¹
B7,Km,[5],146.9 ± 12.1 µM
same,kcat,[5],1.6 ± 0.05 s⁻¹
same,kcat/Km,[5],10800 ± 1000 M⁻¹ s⁻¹
